# Measured values from IntAct's records for PubMed 23435380.
# B1: Protein phosphatase EYA2 (Homo sapiens), O00167-1 (parent)
# chain: MVELVISPSLTVNSDCLDKLKFNRADAAVWTLSDRQGITKSAPLRVSQLFSRSCPRVLPRQPSTAMAAYGQTQYSAGIQQATPYTAYPPPAQAYGIPSYSIKTEDSLNHSPGQSGFLSYGSSFSTSPTGQSPYTYQMHGTTGFYQGGNGLGNAAGFGSVHQDYPSYPGFPQSQYPQYYGSSYNPPYVPASSICPSPLSTSTYVLQEASHNVPNQSSESLAGEYNTHNGPSTPAKEGDTDRPHRASDGKLRGRSKRSSDPSPAGDNEIERVFVWDLDETIIIFHSLLTGTFASRYGKDTTTSVRIGLMMEEMIFNLADTHLFFNDLEDCDQIHVDDVSSDDNGQDLSTYNFSADGFHSSAPGANLCLGSGVHGGVDWMRKLAFRYRRVKEMYNTYKNNVGGLIGTPKRETWLQLRAELEALTDLWLTHSLKALNLINSRPNCVNVLVTTTQLIPALAKVLLYGLGSVFPIENIYSATKTGKESCFERIMQRFGRKAVYVVIGDGVEEEQGAKKHNMPFWRISCHADLEALRHALELEYL
# partner: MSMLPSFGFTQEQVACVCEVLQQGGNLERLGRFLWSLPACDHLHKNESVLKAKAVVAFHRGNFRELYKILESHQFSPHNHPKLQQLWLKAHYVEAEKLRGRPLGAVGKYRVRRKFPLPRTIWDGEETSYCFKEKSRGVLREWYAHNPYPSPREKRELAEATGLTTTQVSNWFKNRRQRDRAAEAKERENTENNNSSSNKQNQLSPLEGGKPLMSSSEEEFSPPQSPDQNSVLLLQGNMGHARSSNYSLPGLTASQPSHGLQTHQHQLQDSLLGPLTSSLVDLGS
# B2: Homeobox protein SIX1 (Homo sapiens), Q15475 (parent)
# chain: B1 partner
# partner: B1 chain
# Variants of: B1
# Settings: with six1_human SIX1, Q15475
row,Variant,effect of a mutation on the interaction
1,MVELVISPSLTVNSDCLDKLKFNRADAAVWTLSDRQGITKSAPLRVSQLFSRSCPRVLPRQPSTAMAAYGQTQYSAGIQQATPYTAYPPPAQAYGIPSYSIKTEDSLNHSPGQSGFLSYGSSFSTSPTGQSPYTYQMHGTTGFYQGGNGLGNAAGFGSVHQDYPSYPGFPQSQYPQYYGSSYNPPYVPASSICPSPLSTSTYVLQEASHNVPNQSSESLAGEYNTHNGPSTPAKEGDTDRPHRASDGKLRGRSKRSSDPSPAGDNEIERVFVWDLDETIIIFHSLLTGTFASRYGKDTTTSVRIGLMMEEMIFNLADTHLFFNDLEDCDQIHVDDVSSDDNGQDLSTYNFSADGFHSSAPGANLCLGSGVHGGVDWMRKLAFRYRRVKEMYNTYKNNVGGLIGTPKRETWLQLRAELEALTDLWLTHSLKALNLINSRPNCVNVLVTTTQLIPALAKVLLYGLGSVFPIENIYSATKTGKESCFERIMQRFGRKAVYVVIGDGVEEEQGAKKHNMPFWRISCHADLEALRHRLELEYL [A532R],disrupting interaction strength
2,MVELVISPSLTVNSDCLDKLKFNRADAAVWTLSDRQGITKSAPLRVSQLFSRSCPRVLPRQPSTAMAAYGQTQYSAGIQQATPYTAYPPPAQAYGIPSYSIKTEDSLNHSPGQSGFLSYGSSFSTSPTGQSPYTYQMHGTTGFYQGGNGLGNAAGFGSVHQDYPSYPGFPQSQYPQYYGSSYNPPYVPASSICPSPLSTSTYVLQEASHNVPNQSSESLAGEYNTHNGPSTPAKEGDTDRPHRASDGKLRGRSKRSSDPSPAGDNEIERVFVWDLDETIIIFHSLLTGTFASRYGKDTTTSVRIGLMMEEMIFNLADTHLFFNDLEDCDQIHVDDVSSDDNGQDLSTYNFSADGFHSSAPGANLCLGSGVHGGVDWMRKLAFRYRRVKEMYNTYKNNVGGLIGTPKRETWLQLRAELEALTDLWLTHSLKALNLINSRPNCVNVLVTTTQLIPALAKVLLYGLGSVFPIENIYSATKTGKESCFERIMQRFGRKAVYVVIGDGVEEEQGAKKHNMRFWRISCHADLEALRHALELEYL [P516R],decreasing interaction strength

# Variants of: B2
# Settings: with EYA2, O00167-1
row,Variant,effect of a mutation on the interaction
1,MSMLPSFGFTQEQVARVCEVLQQGGNLERLGRFLWSLPACDHLHKNESVLKAKAVVAFHRGNFRELYKILESHQFSPHNHPKLQQLWLKAHYVEAEKLRGRPLGAVGKYRVRRKFPLPRTIWDGEETSYCFKEKSRGVLREWYAHNPYPSPREKRELAEATGLTTTQVSNWFKNRRQRDRAAEAKERENTENNNSSSNKQNQLSPLEGGKPLMSSSEEEFSPPQSPDQNSVLLLQGNMGHARSSNYSLPGLTASQPSHGLQTHQHQLQDSLLGPLTSSLVDLGS [C16R],disrupting interaction strength
